Laboratory results taken from patent US20260008856A1 (BLUEFIN BIOMEDICINE, published 2026).

Tests used:
[1] = molecular target: T1, huIL1RAP ECD recombinant protein (human, UniProt Q9NPH3 21-367); assay: Octet BLI, antibody on Protein A biosensor, recombinant huIL1RAP ECD
T1 construct: also called recombinant human IL1RAP-ECD; recombinant human IL1RAP; not shown: C-terminal histidine tag for purification
Procedure: Affinity: The affinity of antibodies to various recombinant IL1RAP protein was determined on an Octet Red™ instrument. After loading reagents into a 96-well plate, the Octet Red™ with Protein A-conjugated biosensors was programmed as follows: 30 seconds for baseline #1; 120 seconds to immobilize the antibody; 30 seconds for baseline #2; 300 seconds for association of antibody to recombinant IL1RAP; and 300-600 seconds for dissociation of recombinant IL1RAP from the antibody.

[2] = molecular target: T1, huIL1RAP ECD recombinant protein; assay: affinity for human IL1RAP (Octet); Table 7 prints 1.4 nM for the same antibody
[3] = molecular target: T2, rat IL1RAP (Met1-Val570 plus Myc-DDK) on transfected 293 cells (Rattus norvegicus, UniProt Q63621 21-570); assay: flow cytometry on 293 cells expressing rat IL1RAP (293-puro-ratIL1RAP) vs 293T-puro [cont.]
T2 construct: whole, on cells; also called RR213032
T2 sequence (Q63621 21-570): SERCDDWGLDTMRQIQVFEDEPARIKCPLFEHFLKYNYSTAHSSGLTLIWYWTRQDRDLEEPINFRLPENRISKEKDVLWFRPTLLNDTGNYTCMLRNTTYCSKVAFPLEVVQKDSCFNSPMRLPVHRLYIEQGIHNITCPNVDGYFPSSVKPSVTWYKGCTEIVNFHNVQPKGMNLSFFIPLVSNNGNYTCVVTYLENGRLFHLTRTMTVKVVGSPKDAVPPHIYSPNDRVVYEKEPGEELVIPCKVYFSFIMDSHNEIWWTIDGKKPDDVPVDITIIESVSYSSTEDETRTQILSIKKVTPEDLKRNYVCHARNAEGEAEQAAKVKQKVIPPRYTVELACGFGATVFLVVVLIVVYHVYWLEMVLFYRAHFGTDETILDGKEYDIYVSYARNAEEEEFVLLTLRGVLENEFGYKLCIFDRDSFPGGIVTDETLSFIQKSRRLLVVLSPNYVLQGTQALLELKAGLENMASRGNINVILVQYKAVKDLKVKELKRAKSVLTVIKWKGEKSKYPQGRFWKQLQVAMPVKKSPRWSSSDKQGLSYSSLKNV
Procedure: (§1) Staining for flow cytometry was performed in 1× cold PBS with 0.5% BSA. Primary antibodies (1 ug/ml) were incubated with live cells on ice for 30 minutes, after a brief wash, cells were incubated with Alexa Fluro® 488-conjugated anti-human IgG secondary antibody @1:1000 (709-546-149, Jackson ImmunoResearch). Acquisition of the data was performed on a MACSQuant® Flow Cytometers (Miltenyi Biotec) and analyzed with FlowJo software.

[4] = molecular target: T3, mouse IL1RAP (Met1-Val570 plus Myc-DDK) on transfected 293 cells (Mus musculus, UniProt Q61730 21-570); assay: flow cytometry on 293 cells expressing mouse IL1RAP (293-puro-mouseIL1RAP) vs 293T-puro [cont.]
T3 construct: whole, on cells; also called MR223729
T3 sequence (Q61730 21-570): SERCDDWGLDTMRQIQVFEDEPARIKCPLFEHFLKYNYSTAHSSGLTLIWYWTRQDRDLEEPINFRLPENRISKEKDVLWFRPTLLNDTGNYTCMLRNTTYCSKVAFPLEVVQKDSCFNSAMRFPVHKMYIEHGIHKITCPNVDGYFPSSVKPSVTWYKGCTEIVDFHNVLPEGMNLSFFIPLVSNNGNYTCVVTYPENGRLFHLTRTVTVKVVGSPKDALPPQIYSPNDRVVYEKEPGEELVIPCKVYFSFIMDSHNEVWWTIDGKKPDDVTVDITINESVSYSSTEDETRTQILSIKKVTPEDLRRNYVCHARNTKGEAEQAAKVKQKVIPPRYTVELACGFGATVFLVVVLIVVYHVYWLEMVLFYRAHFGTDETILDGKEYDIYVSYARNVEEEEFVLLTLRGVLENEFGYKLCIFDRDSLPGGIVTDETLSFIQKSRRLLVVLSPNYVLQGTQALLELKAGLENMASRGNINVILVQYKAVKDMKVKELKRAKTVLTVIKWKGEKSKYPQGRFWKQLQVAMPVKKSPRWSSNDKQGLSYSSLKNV
Procedure: as §1

[5] = molecular target: T2, rat IL1RAP (Met1-Val570 plus Myc-DDK) …; assay: flow cytometry on 293 cells expressing rat IL1RAP (293-puro-ratIL1RAP) vs 293T-puro; 1 ug/ml antibody, Alexa 488 anti-human IgG secondary
Procedure: as §1

[6] = molecular target: T2, rat IL1RAP (Met1-Val570 plus Myc-DDK) …; assay: flow cytometry on 293 cells expressing rat IL1RAP (293-puro-ratIL1RAP) vs 293T-puro
Procedure: as §1

[7] = molecular target: T3, mouse IL1RAP (Met1-Val570 plus Myc-DDK) …; assay: flow cytometry on 293 cells expressing mouse IL1RAP (293-puro-mouseIL1RAP) vs 293T-puro
Procedure: as §1

[8] = molecular target: T4, human IL1RAP on IL1RAP positive human cell lines (EOL-1, Karpas 299; HEK-Blue reporter cells) (human, UniProt Q9NPH3 21-570); assay: cell-based or functional assay
[9] = molecular target: T4, human IL1RAP on IL1RAP positive human …; assay: cell-based or functional assay; remark: listed apart in the source
[10] = molecular target: T4, human IL1RAP on IL1RAP positive human …; assay: cell-based or functional assay; remark: listed apart in the source
[11] = molecular target: T4, human IL1RAP on IL1RAP positive human …; assay: cell-based or functional assay; remark: listed apart in the source

| Binder | Kd [1] | Kd [2] | binding result [3] | binding result [4] | binding result [5] | binding result [6] | binding result [7] | EC50 against IL-1alpha signaling, IL-1 reporter assay [8] | EC50 against IL-1beta signaling, IL-1 reporter assay [8] | EC50, inhibition of signalling by 0.5 ng/ml IL-1beta in HEK-Blue IL-1beta reporter cells (Abs. 620 nM) [9] | EC50, inhibition of signalling by 0.5 ng/ml IL-1a (IL-1alpha) in the HEK-Blue IL-1 reporter assay (Abs. 620 nM) [10] | EC50, inhibition of signalling by 0.5 ng/ml IL-33 in HEK-Blue IL-33 reporter cells (Abs. 620 nm); the curve levels off at about 0.4, not at 0 [11] |
| --- | --- | --- | --- | --- | --- | --- | --- | --- | --- | --- | --- | --- |
| 32C12_21A4 (antibody, V domains shown) VH: QVQLVESGGGVVQPGRSLRLSCAASGFTFRNYGIHWVRQAPGKGLEWVAVIWYDGSNKFYADSVKGRFTISRDNSKNTLYLQMNSLRVEDTAVYYCAREEGIAVAPFDYWGQGTLVTVSS VL: DIQMTQSPSSLSASVGDRVAITCRANQSIASYLNWYQQKPGKAPKLLIYGASSLQNGVPSRFSGSGSRTDFTLTISSLQPEDFATYYCQQSYSTEITFGQGTRLEIK | 1400 pM | 1000 pM | no binding (tested: 1 ug/ml) | no binding (tested: 1 ug/ml) |  |  |  |  |  |  |  |  |
| 24G3_17C5 (antibody, V domains shown, Recombinant human antibody) VH: EVQLLESGGGLVQRGGSLRLSCAASGFTFSSYAMSWVRQAPGKGLEWVSSISGSGDSTNYADSVKGRFTISRDNSKNTLHLQMNSLRAEDTAVYYCVRDYYYGMDVWGHGTTVTVSS VL: EIVLTQSPATLSLSPGERATLSCRASQSVNSYLAWYQQKPGQAPRLLIYDASNRATGIPARFSGSGSGTDFTLTISSLEPEDFAVYYCQQRSYWPITFGQGTRLEIK | 37000 pM |  |  |  | binds |  |  |  |  |  |  |  |
| 38E10_21C3 (antibody, V domains shown, Recombinant human antibody) VH: EVQLLESGGGLVQPGGSLRLSCAASGFTFSNYAMTWVRQAPGKGLEWVSSISISRAGTYYADSVKGRFTISRDNSKNTLNLQMNSLRAEDTAEYYCAREYYYGMDVWGQGTTVTVSS VL: EIVLTQSPATLSLSPGERATLSCRASQSVSSYLAWYQQKPGQTPRLLIYDASNRATGIPARFSGSGSGTDFTLTISSLETEDFAVYYCQQLINWPLTFGGGTKLEIK | 2000 pM |  |  |  |  | no binding (tested: 1 ug/ml) | no binding (tested: 1 ug/ml) |  |  |  |  |  |
| 44E5_15C5 (antibody, V domains shown) VH: QVQLVESGGGVVQPGRSLRLSCAASGFTFRSHGMHWVRQAPGKGLEWVAVIWYDGSSDYYADSVKGRFTISRDNSKNTLFLQMNSLSAEDTAVYYCARENVYGSGWFFDYWGQGTLVTVSS VL: EIVMTQSPATLSVSPGERASLSCRASQSVGSNLAWYQQKPGQAPRLLIFGASTRATGIPARFSGSRSGTEFTLTISSLQSEDFALYYCQQYNNWPPWTFGQGTKLEIK | 400 pM |  | no binding (tested: 1 ug/ml) | no binding (tested: 1 ug/ml) |  |  |  | < 1000 pM | < 1000 pM | 170 pM | 180 pM | 440 pM |
| 16H2_17D2 (antibody, V domains shown) VH: QVQLVESGGGVVQPGGSLRLSCAASGFTFSSHGMHWVRQAPGKGLEWVAVIWYDGSNKFYTDSVQGRFTISRDNSKNTLNLQMNSLRAEDTAVYYCAREGLRAGYYFDFWGQGTLVTVSS VL: DIQMTQSPSSLSASVGDRVTITCRASQRISFYSNWYQQKPGKAPKLLIYAASSLQSGVPSRFSGSGSGTDFTLTISSLQPEDFATYFCQQSHSTPLTFGGGTKLEIK | 200 pM |  |  |  |  | no binding (tested: 1 ug/ml) | no binding (tested: 1 ug/ml) |  |  | 100 pM | 90 pM |  |
